Laboratory results published in PMC10620989 (2023).

Target: Bim BH3 peptide (FITC-labeled) BH3 (Homo sapiens, UniProt O43521, FITC-labeled Bim BH3 peptide, GST-tagged Mcl-1)
Experiment: fluorescence polarization

B1: Mcl-1 (GST-tagged) 152-309 (protein)
chain: EDDLYRQSLEIISRYLREQATGSKDSKPLGEAGAAGRRALETLRRVGDGVQRNHETAFQGMLRKLDIKNEGDVKSFSRVMVHVFKDGVTNWGRIVTLISFGAFVAKHLKSVNQESFIEPLAETITDVLVRTKRDWLVKQRGWDGFVEFFHVQDLEGGI
Kd: 12.4 nM
